Measurements reported in the DeepSol protein solubility set.

assay: soluble on expression in E. coli; label from the status in PepcDB or PDB records

Q: Which “soluble on expression in E. coli” value does the source give for “MSYSWKKILIKPESTVVDALRVIDNEALRIALVVNDEQQLLGVVTDGDIRRGLLNNLPLETPVVDIMSRSPITASVNTAKEQLVKLMESKSILAVPLMEENKVVGLETLHHLFEEKTYHNPVFIMAGGFGTRLRPLTDTCPKPMLKIGNKPILETVIRSFIKAGFVNFYISTHYMPEQIQNHFGDGSELGVKISYVHEDSPLGTGGALGLLPDDLPQDLPLIMMNGDVLTKVDFERLLDFHTENQADATMCVREYDYQIPYGVINGKGNKITSMVEKPIQRFFVNAGIYVVSPSVIQSVPKNHHIDMPTLLEQHMNERDNILMFPIHEYWLDIGRMDDFNRAQADIHTLGLDLEHHHHHH” here?
A: not soluble

Q: With “MSANDFKPETWTSSANEALRVSIVGENAVQFSPLFTYPIYGDSEKIYGYKDLIIHLAFDSVTFKPYVNVKYSAKLGDDNIVDVEKKLLSFLPKDDVIVRDEAKWVDCFAEERKTHNLSDVFEKVSEYSLNGEEFVVYKSSLVDDFARRMHRRVQIFSLLFIEAANYIDETDPSWQIYWLLNKKTKELIGFVTTYKYWHYLGAKSFDEDIDKKFRAKISQFLIFPPYQNKGHGSCLYEAIIQSWLEDKSITEITVEDPNEAFDDLRDRNDIQRLRKLGYDAVFQKHSDLSDEFLESSRKSLKLEERQFNRLVEMLLLLNNS” as the sequence, how does the “soluble on expression in E. coli” value read?
A: soluble

Q: With “MSWEGFKKAINRAGHSVIIKNVDKTIDKEYDMEERRYKVLQRAGEALQKEAKGFLDSLRAVTASQTTIAEVISNLYDDSKYVAGGGYNVGNYYLQCVQDFDSETVKQLDGPLRETVLDPITKFSTYFKEIEEAIKKRDHKKQDFDAAKAKVRRLVDKPAKDASKLPRAEKELSLAKDIFENLNNQLKTELPQLVSLRVPYFDPSFEALIKIQLRFCTDGYTRLAQIQQYLDQQSRDDYANGLLDTKIEELLGQMTSLDICALGIK” as the sequence, how does the “soluble on expression in E. coli” value read?
A: not soluble

Q: For “MGSDKIHHHHHHMLKFLKDSKVDFTVRCCGVSSIPCALFFLTRSTNRTYSILVKEWKNIEKLLDPFFTKGIDQLSMVDALRILMRIGDTLNGVRNHERLYRYIDSLFPAQKIPGGLEIWAFDLFEGKEVVFKEGDDLRRALKISLSFPILYRPYEDRYVPITWITGVPEGELTVLFDVKKEKNPPRNALEYLFLSTTARTKHLERERIKKAKSLRIACTSLSPVSTTRRAYEEFSRFFEEVVL”, which “soluble on expression in E. coli” value is on record?
A: not soluble

Q: With “MGSDKIHHHHHHMDTLFKALSDPARRAILDSLRARDGQSLTDLEPQLDMTRFGVMKHLKLLEDAGLIVTKRQGRFKYHYLNPMPLQEMLDRWVAPFLQPQARHLSDLKAKLERSHTMGKPDFMMQTFIRCTQDALWDALTKADQMAAYHFMCNEVRGNASVGNVTEFVLPDGNPMLRQVTTELDPKSRIAATFEPMFMGPDAPASHMVYLIEPQGETCKLTIEHYDMAPGQEGFAEGWARLASSLKSYLETGKAMKGAA” as the sequence, how does the “soluble on expression in E. coli” value read?
A: not soluble

Q: Which “soluble on expression in E. coli” value does the source give for “MGSDKIHHHHHHMKITFGQQTTKVKQLADKISFDISMGVYKSGDSLPSINQLSQAYEVSRDTVFKAFLDLKERGIIDSTPGKGYYVVGRLKNVLLLLDEYSPFKYALYNSFVKRLSIRYKVDLLFHQYNERLFNTIIRESLGRYNKYIVMNFDNEKLSPNLYKINPSKLLLLDFGKFEKEGFSYVCQDFDQGFYNALFQLADRLRKYQKLVFVLVDDSMHPRSSRDFFERFCADQHLGCEVVSDIEGLQVRRGEVYIAIRQIDVVSIIKKSRVEGLQCGVDFGLIGYNDTPAYEVIDQGITALSVDWEKMGDKAAEFVLQGKTIQDYLPTEVRLRASL” here?
A: not soluble

Q: Which “soluble on expression in E. coli” value does the source give for “MKKVTAMLFSMAVGLNAVSMAAKAKASEEQETDVLLIGGGIMSATLGTYLRELEPEWSMTMVERLEGVAQESSNGWNNAGTGHSALMELNYTPQNADGSISIEKAVAINEAFQISRQFWAHQVERGVLRTPRSFINTVPHMSFVWGEDNVNFLRARYAALQQSSLFRGMRYSEDHAQIKEWAPLVMEGRDPQQKVAATRTEIGTDVNYGEITRQLIASLQKKSNFSLQLSSEVRALKRNDDNTWTVTVADLKNGTAQNIRAKFVFIGAGGAALKLLQESGIPEAKDYAGFPVGGQFLVSENPDVVNHHLAKVYGKASVGAPPMSVPHIDTRVLDGKRVVLFGPFATFSTKFLKNGSLWDLMSSTTTSNVMPMMHVGLDNFDLVKYLVSQVMLSEEDRFEALKEYYPQAKKEDWRLWQAGQRVQIIKRDAEKGGVLRLGTEVVSDQQGTIAALLGASPGASTAAPIMLNLLEKVFGDRVSSPQWQATLKAIVPSYGRKLNGDVAATERELQYTSEVLGLNYDKPQAADSTPKPQLKPQPVQKEVADIAL” here?
A: not soluble
